This is an account of results in the nanobody polyreactivity screen of Harvey et al. (2022).

The nature of this data set: yeast display, Sf9 membrane polyspecificity reagent, FACS + sequencing; frameworks hold sequencing errors. In outline:
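A nanobody's polyreactivity label depends on the gate it was sorted from. Yeast display cells were stained with 10% biotinylated, detergent-solubilized Sf9 membrane reagent for 1 hour at 4 °C, enriched on streptavidin microbeads and sorted by FACS. The low and high (top ~1%) gates were set on anti-HA fluorescence for expression and streptavidin fluorescence for reagent binding.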
In the case of “QVQHVESGGGLVQAGGSLRLSCAASGIIITGNAMGWYRQAPGKERELVAAISTSGGRTYYADSVKGRFTISRDNAKNTVYLQMNSLKPEDTAVYYCAADDLSGTELYYWGQGTQVTVSS”, the “polyreactivity (PSR sort gate)” value was “high polyreactivity”.

On to “QVQLVESGGGLVQAGGSLRLSCAASGSIFDRNAMGWYRQAPGKERELVAAITSGGSTYYADSVKGRFTISRDNAKNTVYLQMNSLKPEDTAVYYCNADTDPPVPLYYWGQGTQVTVSS”, for which the “polyreactivity (PSR sort gate)” value is reported as “low polyreactivity”.

As for “PVQLVESGGGLVQAGGSLRLSCAASGRIFSSYTMGWNIQAPGKERELVAAISWRGGSTYYADSVKGRFTISRDNAKNTVYLLMNSLKPEDTAVYYCAADSRSHPGDYWGHGTQVTVSS”, the “polyreactivity (PSR sort gate)” value is listed as “low polyreactivity”.

For “QVQLVESGGGLVQAGGSLRLSCAASGRTFPTYAMGWDRQAPGKERELVAAITTSGGSTYADSVMGRFTISRDNAKNTVYLQMNSLKPEDTAVYYCATRSFYGGYYYSSGSEFDYWGQGTQVTVSS”, the “polyreactivity (PSR sort gate)” value is “low polyreactivity”.

As for “QVQLVESGGGLVQAGGSLRLSCAASGSIFIWYAMGWSRQAPGKEREFVAAITYTGTSTYYADSVKGRFTISRDNAKNTVYLQMNSLKPEDTAVYYCAADKSTHPFPSDPGYGYWGQGTQVTVSS”, the “polyreactivity (PSR sort gate)” value is “low polyreactivity”.

As to “QVQLVESGGGLVQAGGSLRLSCAASGRTFQWYVMGWYRQAPGKERELVAAITKSGGSTFYADSVKGRFTISRDNAKNTVYLQMNSLKPEDTAVYYCAASGRYAIVLGDQYYGYYYWGQGTQVTVSS”, the “polyreactivity (PSR sort gate)” value is given as “high polyreactivity”.

For the sequence “QVQLVESGGGLVQAGGSLRLSCAASGSTFAFNAMGWYRQAPGKEREFVARITWSDGSTYYADSVKGRFTISRDNAKNSVYLQMNSLKPEDTAVYYCARDPTEQAIARWTYDYWGQGTQVTVSS”, the “polyreactivity (PSR sort gate)” value is “low polyreactivity”.

In the case of “QVQLVESGGGLVQAGGSLRLSCAASGSIFTPYTMGWYRQAPGKERELVAAISWGADSTYYADSVKGRFTISRDNAKNTVYLQMISLKPEDTAVYYCGDDYWGWSNGYEYWGQGTQVTVSS”, the “polyreactivity (PSR sort gate)” value was “low polyreactivity”.

For the sequence “QVQLVESGGGLVQAGGSLRLRCASSGRTFRYNAMGWYRQAPGKERELVATISSSGGSTSYADSVKGRFTISRDNAKKTVYLQMNSLKPEDTAVYYCNKRRLVAAGNGMDSWGQGTQVTVSS”, the “polyreactivity (PSR sort gate)” value is “low polyreactivity”.

Turning to “QVQLVESGGGLVQAGGSLRLSCAASGFIFRYYDMGWYRQAPGKERELVAAISWRGGRTYYADSVKGRFTISRDNAKNTVYLQMNSLKPEDTAVYYCAAGFSLWTYPKPYGEDYWGQGTQVTVSS”, the “polyreactivity (PSR sort gate)” value is recorded as “high polyreactivity”.

For the sequence “QVQLVESGGGLVQAGGSLRLSCAASGLIFPYYALGWYRQAPGKERELVAAISWRGGNTYYADSVKGRFTISRDNAKNTVYLQMNSLKPEDTAVYYCNTVQYRNEMGYWGQGTQVTVSS”, the “polyreactivity (PSR sort gate)” value is “high polyreactivity”.

As for “QVQLVESGGGLVQAGGSRRLSCAASGRTFDSYTMGWYRQAPGKERELVADITFTGGSTYYADSVKGRFTISRDNAKNTVYLQMNSLKPDDTAVYYCNADREYKWYFRYDYWGQGTQVTVSS”, the “polyreactivity (PSR sort gate)” value was “low polyreactivity”.

As to “QVQLVESGGGLVQAGGSLRLSCAASGIIFIHYAMGWYRQAPGKERELVAAITSGGSTNYADSVKGRFTISRDNAKNTVYLQMNSLKPEDTAVYYCNAEPVASYYRVSDYEYWGQGTQVTVSS”, the “polyreactivity (PSR sort gate)” value is “low polyreactivity”.

As to “QDQLVESGGGLVQAGGSLRLSCAASGFIFDLYAMGWYRQAPGKERELVAVISYDGGSTYYADSVKGRFTISRDNAKNTVYLQMNSLKPVDTAVYYCNTYAGLVSPSDLYDYWGQGTQVTVSS”, the “polyreactivity (PSR sort gate)” value was “low polyreactivity”.

On to “QVQLVESGGGLVQAGGSLRLSCASSGSTFAQNTMGWYRQAPRKERELVATISDGGGSTYYADSVKGRFTISRDNAKNTVYLQMNSLKPEDTAVYYCNTDRFWPSDYWGQGTQVTVSS”, for which the “polyreactivity (PSR sort gate)” value is listed as “low polyreactivity”.

For “QVHLVESGGGLVQAGGSLRLTCAASGLTFIRYAMGCYRQAPGKERELVAAISSYGGTTYYADSVKGRFTISRDKAKNTVYLQMISLKPEDTSVYYCAAVLTYYRGSTWTFSGFAYDHWGQGTQVTVSS”, the “polyreactivity (PSR sort gate)” value is on record as “high polyreactivity”.

As for “QVQLVESGGGLVQAGGSLRLSCAASGSTFWYAMGWYRQAPGKERELVAAITARGGRTYYADSVKGRFTISRDNAKHTVYLQLISLKPEDTAVYYCARLSYAGGQWIIGKYDYWGQGTQVTVSS”, the “polyreactivity (PSR sort gate)” value was “high polyreactivity”.

With “QVQLVESGGGLVQAGGSLRLSCAASGFIFRRYALGWYRQAPGKERELVAAISWGGTSTYYADSVKGRFTISRDNAKNTVYLQMNSLKPVDTAGYYCAADRSVRTRGGFDYWGQGTQVTVSS”, the “polyreactivity (PSR sort gate)” value is reported as “high polyreactivity”.

For the sequence “QVQLVESGGGLVQAGGSLRLSCAASGSTFAWYAMGWYRQAPGKGEFVAGISDSGGRTYYADSVKGRFTISRDNAKNTVYLQMNSLKPEDTAVYYCAAGDHYYRYAYRRGYWGQGTQVTVSS”, the “polyreactivity (PSR sort gate)” value was “low polyreactivity”.

As for “QVQLVESGGGLVKAGGSLRLSCAASGRTFRFYAMGWYRQAPGKEREFVAAISRSVGSTYYADSVKGRFTISRDNAKNTVYLQMNSLKPEDTAVYYCNADYRSRYVEYDYWGQGTQVTVSS”, the “polyreactivity (PSR sort gate)” value is “high polyreactivity”.

In the case of “QVQLVESGGGLVQAGGTLRVSCAASGSTFTTNAMGWSRQAPGTERELFATISGGGSTYYADSVQGRFTISRDNAKNTVYLQMNSLKPDDTAVYYCATDVQVPGIGRSVYAYEYLGQGTQVTVSS”, the “polyreactivity (PSR sort gate)” value is given as “low polyreactivity”.

For “QVQLVESGGGLVQAGGSLRLSCAASGSILVAYAMGWYRQAPGKERELVAAISSVGNTYYADSVKGRFTISRDNAKNTVYLQMNSLIPEDTAVYYCNAVYRVWYAEWSTVGSPHDYWGQGTQVTVSS”, the “polyreactivity (PSR sort gate)” value is “low polyreactivity”.

For the sequence “QVQLVESGGGLVQAGGSLRLSCAASGSIFFDGNAMGWYRQAPGKERELVAAISVSGGSTYYADSVKGRFTISRDNAKNTVYLQMNSVKPEDTAVYYCAKYPSKSYVPGDYWGQGTQVTVSS”, the “polyreactivity (PSR sort gate)” value is on record as “low polyreactivity”.

Turning to “QVQLVESGGGLVQAGGSLRLSCAASGRTFYDYAKGWYRQAPGKERELVASITYYADSVKGRFTISRDNAKNTVYLQMNSLKPEDTSVYYCAKDLYSNDLYRRYDYWGQGTQVTVSS”, the “polyreactivity (PSR sort gate)” value was “low polyreactivity”.

“QVQLVESGGGLVQAGGSLRLSCAASYYAMGWYRQAPAKERELVASISSGGSTNYADSVKGRFTISRDNAKNTVFFQMNSLKPEDTAVYYCAADVADGVWVKIADEYWGQGTQVTVSS”: the “polyreactivity (PSR sort gate)” value is listed as “low polyreactivity”.

Turning to “QVQLVESGGGLVQAGGSLRLSCAASGRIFGRTAMGWYRKAPGKERELVAAISWRGGNTYYADSVKGRFTISRDNAKNTVYLQMNSLKPEDTAVYYCNTVQYRNEMGYWGQGTQVTVSS”, the “polyreactivity (PSR sort gate)” value is on record as “high polyreactivity”.

In the case of “QVQLVESGGGLVQAGGSLRLSCAASGAIFRGYAMGWYRQAPGKERELVATITRRCGSTYYADSVKGRFTISRDNAKNTVYLQMNSLKPEDTAVYYCNARLTFLSSWLGKLQWGYDYWGQGTQVTVSS”, the “polyreactivity (PSR sort gate)” value is on record as “low polyreactivity”.

Regarding “QVQLVESGGGLVQAGGSLRLSCAASGSIFTLYAMGWYRQAPGKERELVATINWSGGSTSYADSVKGRFTISRDNAKNTVYLQMNSLKPEDTAVYYCAADAGSYDALDYSDLLYDYWGQGTQVTVSS”, the “polyreactivity (PSR sort gate)” value is “low polyreactivity”.

For “QVQLVESGGGLVQAGGSLRLSCAASGITFYVYAMGWYRQAPGKERELVAAISGSGGNTYYADSVKGRFTISRDNAKNTVYVQMNSLKPEDTAVYYCNADDHSPYYCDLDYWGQGTQVTVSS”, the “polyreactivity (PSR sort gate)” value is listed as “low polyreactivity”.

For “QVQLVESGGGLVQAGGSLLLTCAASGRIISLYAMGWYRQAPGKERELVAGISGGTIKYYADSLKGRFTISRDNAKNTVYLQMNSLKAEDTAVYYCAAKPTYRGYGYGSWGHGTQVTVSS”, the “polyreactivity (PSR sort gate)” value was “low polyreactivity”.
